In IntAct's records for PubMed 26305884:

Each substance was assayed against ccyl1_mouse Ccnyl1 (UniProt D3YUJ3).
Chain of ccyl1_mouse Ccnyl1 (D3YUJ3 whole entry): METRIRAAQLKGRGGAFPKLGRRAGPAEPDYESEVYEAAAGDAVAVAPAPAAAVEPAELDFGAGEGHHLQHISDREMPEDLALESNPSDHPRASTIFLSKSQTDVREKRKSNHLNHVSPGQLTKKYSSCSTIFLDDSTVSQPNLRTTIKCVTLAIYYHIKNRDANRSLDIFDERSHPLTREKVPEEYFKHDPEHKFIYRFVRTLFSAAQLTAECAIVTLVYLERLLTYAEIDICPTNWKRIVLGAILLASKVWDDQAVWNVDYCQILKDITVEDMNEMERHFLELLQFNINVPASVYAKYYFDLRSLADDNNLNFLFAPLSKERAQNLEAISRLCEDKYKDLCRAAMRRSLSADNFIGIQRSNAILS

Chain of Cyclin-dependent kinase 16 (Mus musculus), Q04735 S110A (Q04735 whole entry S110A): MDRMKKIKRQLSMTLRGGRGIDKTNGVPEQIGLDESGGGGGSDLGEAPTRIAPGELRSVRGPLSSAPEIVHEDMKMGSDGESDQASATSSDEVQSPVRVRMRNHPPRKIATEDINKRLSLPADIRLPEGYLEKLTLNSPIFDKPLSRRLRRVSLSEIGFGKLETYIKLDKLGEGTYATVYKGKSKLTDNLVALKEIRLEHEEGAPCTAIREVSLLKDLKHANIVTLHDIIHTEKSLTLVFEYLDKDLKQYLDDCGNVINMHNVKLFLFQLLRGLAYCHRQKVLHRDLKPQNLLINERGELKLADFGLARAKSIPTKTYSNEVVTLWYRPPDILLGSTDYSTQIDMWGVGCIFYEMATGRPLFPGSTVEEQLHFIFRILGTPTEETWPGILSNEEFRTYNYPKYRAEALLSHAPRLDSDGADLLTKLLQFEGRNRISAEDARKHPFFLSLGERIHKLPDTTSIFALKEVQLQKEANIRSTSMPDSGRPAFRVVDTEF
Chain of Cyclin-dependent kinase 16 (Mus musculus), Q04735 S146A (Q04735 whole entry S146A): as the sequence (Q04735 whole entry S110A) above, with A110S, S146A counted along it
Chain of Cyclin-dependent kinase 16 (Mus musculus), Q04735 S110D (Q04735 whole entry S110D): as the sequence (Q04735 whole entry S110A) above, with A110D counted along it
Chain of Cyclin-dependent kinase 16 (Mus musculus), Q04735 S153A (Q04735 whole entry S153A): as the sequence (Q04735 whole entry S110A) above, with A110S, S153A counted along it
Chain of Cyclin-dependent kinase 16 (Mus musculus), Q04735 S78A (Q04735 whole entry S78A): as the sequence (Q04735 whole entry S110A) above, with S78A, A110S counted along it
Chain of Cyclin-dependent kinase 16 (Mus musculus), Q04735 S119A (Q04735 whole entry S119A): as the sequence (Q04735 whole entry S110A) above, with A110S, S119A counted along it
Chain of Cyclin-dependent kinase 16 (Mus musculus), Q04735 S153D (Q04735 whole entry S153D): as the sequence (Q04735 whole entry S110A) above, with A110S, S153D counted along it
Chain of Cyclin-dependent kinase 16 (Mus musculus), Q04735 S146D (Q04735 whole entry S146D): as the sequence (Q04735 whole entry S110A) above, with A110S, S146D counted along it

Substance | effect of a mutation on the interaction
Cyclin-dependent kinase 16 (Mus musculus), Q04735 P205A;T207A;R210A;E211A | disrupting interaction strength
Cyclin-dependent kinase 16 (Mus musculus), Q04735 S78A | increasing interaction strength
Cyclin-dependent kinase 16 (Mus musculus), Q04735 S110A | decreasing interaction strength
Cyclin-dependent kinase 16 (Mus musculus), Q04735 S110D | decreasing interaction strength
Cyclin-dependent kinase 16 (Mus musculus), Q04735 S119A | decreasing interaction strength
Cyclin-dependent kinase 16 (Mus musculus), Q04735 S146A | disrupting interaction strength
Cyclin-dependent kinase 16 (Mus musculus), Q04735 S146D | disrupting interaction strength
Cyclin-dependent kinase 16 (Mus musculus), Q04735 S153A | increasing interaction strength
Cyclin-dependent kinase 16 (Mus musculus), Q04735 S153D | decreasing interaction strength
Cyclin-dependent kinase 16 (Mus musculus), Q04735 T175A | decreasing interaction strength
Cyclin-dependent kinase 16 (Mus musculus), Q04735 T175D | increasing interaction strength
